From paper doi:10.1101/2023.08.08.552426

How the values were obtained:
[1] = molecular target: smORF5 (A0901_04910) (Apilactobacillus kunkeei strain A0901); assay: NMR relaxation
[2] = molecular target: smORF7 (A0901_04830) (Apilactobacillus kunkeei strain A0901); assay: NMR relaxation

stoichiometry N [1]	stoichiometry N [2]	Substance
2		smORF5 (A0901_04910) (natural protein)
	2	smORF7 (A0901_04830) (natural protein)
